From patent US20230074657A1 (SHANGHAI HENLIUS BIOTECH, published 2023)
Changes are numbered by the printed parent chain. Blank lines part the entries; values can stand above or below the binder they belong to.

Assays:
[1] = biological target: T1, full-length human LAG3 on the cell surface (transfected CHO-S or Jurkat cells) (human, UniProt P18627 23-525); assay: flow cytometry on Jurkat cells expressing full-length human LAG3, anti-mouse IgG-FITC
T1 construct: whole, on cells; also called LAG3 on the cell membrane
T1 sequence (looked up): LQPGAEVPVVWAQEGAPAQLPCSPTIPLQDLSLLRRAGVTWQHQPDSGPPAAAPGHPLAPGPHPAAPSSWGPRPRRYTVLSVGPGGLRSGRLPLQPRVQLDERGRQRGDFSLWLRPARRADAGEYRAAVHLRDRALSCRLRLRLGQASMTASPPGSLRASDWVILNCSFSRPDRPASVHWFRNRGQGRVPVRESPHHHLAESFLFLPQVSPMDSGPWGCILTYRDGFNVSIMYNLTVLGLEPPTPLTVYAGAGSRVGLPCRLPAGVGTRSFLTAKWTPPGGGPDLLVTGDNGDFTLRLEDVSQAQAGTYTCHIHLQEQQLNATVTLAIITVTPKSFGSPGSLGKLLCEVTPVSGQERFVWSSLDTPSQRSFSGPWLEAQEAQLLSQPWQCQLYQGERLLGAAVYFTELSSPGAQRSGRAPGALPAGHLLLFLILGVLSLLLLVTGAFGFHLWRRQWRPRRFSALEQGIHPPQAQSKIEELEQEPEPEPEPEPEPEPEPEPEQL
Method: (§1) The transfected Jurkat cells expressing the full-length human LAG3 gene are taken and washed twice with PBS (2% FBS), and the cell concentration is adjusted to 2×10⁵/100 μl. […] The cells are centrifuged at 500×g for 5 min. […] The cells are washed twice with PBS (2% FBS). […] The cells are washed twice with PBS (2% FBS). The cells are suspended in 200 μl PBS and analyzed by flow cytometry.

[2] = biological target: T1, full-length human LAG3 on the cell …; assay: flow cytometry on Jurkat cells expressing full-length human LAG3, anti-human IgG Fab-FITC
Method: as §1

[3] = biological target: T1, full-length human LAG3 on the cell …; assay: flow cytometry on CHO-S cells expressing full-length human LAG3 [panel 6A]
Method: (§2) The binding of the humanized antibodies to LAG3 on the cell surface is determined by a flow cytometry method. The transfected CHO-S or Jurkat cells expressing the full-length human LAG3 gene are taken and washed twice with PBS (2% FBS), and the cell concentration is adjusted to 5×10⁵/100 μl. 1:3 gradient-diluted anti-LAG3 humanized antibody is added, and incubated at 4° C. for 30 min. […] The cells are centrifuged at 500×g for 5 min. The cells are washed twice with PBS (2% FBS). 1:300 diluted goat anti-human IgG Fab-FITC (Thermo Fisher) is added, and incubated at 4° C. for 30 min. The cells are washed twice with PBS (2% FBS). The cells are suspended in 200 μl PBS and analyzed by flow cytometry.

[4] = biological target: T2, LAG3-Fc recombinant protein (UniProt P18627 23-450); assay: ELISA on coated LAG3-Fc, anti-human kappa-HRP
T2 construct: also called LAG3-Fc (Acro); LAG3-Fc protein; not shown: Fc part
T2 sequence (looked up): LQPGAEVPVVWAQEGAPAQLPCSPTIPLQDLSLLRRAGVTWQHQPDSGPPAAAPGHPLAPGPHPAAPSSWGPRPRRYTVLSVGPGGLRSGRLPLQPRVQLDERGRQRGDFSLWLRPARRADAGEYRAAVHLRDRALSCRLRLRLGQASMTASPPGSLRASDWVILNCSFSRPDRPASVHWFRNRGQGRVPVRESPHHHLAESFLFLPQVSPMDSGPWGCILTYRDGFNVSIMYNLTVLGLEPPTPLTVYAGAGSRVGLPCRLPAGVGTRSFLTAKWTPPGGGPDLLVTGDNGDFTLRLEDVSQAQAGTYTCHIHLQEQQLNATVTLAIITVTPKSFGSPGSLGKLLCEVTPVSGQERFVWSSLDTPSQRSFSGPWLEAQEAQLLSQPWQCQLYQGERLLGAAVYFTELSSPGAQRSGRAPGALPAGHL
Method: The affinity of the humanized antibody for LAG3 is detected by an ELISA technique. […] The plate is washed 3 times with PBS containing 0.05% Tween 20 (PBST). The plate is blocked with PBS containing 5% skimmed milk for 1 hour at room temperature. […] The plate is washed 3 times with PBST, and 30 μl of 1:4000 diluted horseradish peroxidase-labeled goat anti-human IgG kappa light chain secondary antibody (Millipore) is added thereto, and the plate is allowed to stand at room temperature for 1 hour. The plate is washed 6 times with PBST, and TMB is added thereto for color development. The reaction is stopped with 2M H₂SO₄. The plate is read at 450 nm with a microplate reader.

[5] = biological target: T3, Recombinant mouse LAG3-Fc fusion protein (mouse, UniProt Q61790 24-442, limits assumed); assay: ELISA, plate coated with mouse LAG3-Fc
T3 construct: Bought; not shown: Fc part; not described
T3 sequence (looked up): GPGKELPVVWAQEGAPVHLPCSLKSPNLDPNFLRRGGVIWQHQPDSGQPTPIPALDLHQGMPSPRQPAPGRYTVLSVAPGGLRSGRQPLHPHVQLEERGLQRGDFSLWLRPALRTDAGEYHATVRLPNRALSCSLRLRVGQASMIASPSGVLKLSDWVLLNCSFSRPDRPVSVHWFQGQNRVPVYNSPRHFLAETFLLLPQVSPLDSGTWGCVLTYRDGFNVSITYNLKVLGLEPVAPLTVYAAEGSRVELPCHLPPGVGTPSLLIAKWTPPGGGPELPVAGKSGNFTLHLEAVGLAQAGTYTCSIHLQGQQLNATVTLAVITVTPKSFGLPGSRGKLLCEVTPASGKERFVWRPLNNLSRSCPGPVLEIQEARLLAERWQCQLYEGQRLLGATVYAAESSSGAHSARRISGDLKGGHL
Method: The plate is washed 3 times with PBS containing 0.05% Tween 20 (PBST). The plate is blocked with PBS containing 5% skimmed milk for 1 hour at room temperature. […] The plate is washed 3 times with PBST, and 30 μl of 1:2000 diluted horseradish peroxidase-labeled goat anti-human IgG kappa light chain secondary antibody (millipore) is added thereto, and the plate is allowed to stand at room temperature for 1 hour. The plate is washed 6 times with PBST, and TMB is added thereto for color development. The reaction is stopped with 2M H₂SO₄. The plate is read at 450 nm with a microplate reader.

[6] = biological target: T2, LAG3-Fc recombinant protein; assay: SPR, LAG3-Fc immobilized on the chip, antibody in flow, 1:1 Langmuir fit
Method: (§3) Surface plasmon resonance (SPR) is used to measure the binding affinity and kinetic constants of the anti-LAG3 humanized antibody for the LAG3 protein. […] The data obtained from the experiments are analyzed using an evaluation software, and the curve is fitted with a 1:1 Langmuir binding model.

[7] = biological target: T2, LAG3-Fc recombinant protein; assay: flow cytometry blocking assay: antibody premixed with LAG3-Fc (2 µg/ml), binding to MHC II on Raji cells
Method: Raji cells are washed twice with PBS (2% FBS), and the cell concentration is adjusted to 2×10⁵/100 μl. […] The mixture is then mixed with the Raji cells and incubated at 4° C. for 60 min. The cells are centrifuged at 500×g for 5 min. The cells are washed twice with PBS (2% FBS). 1:500 diluted goat anti-human IgG-Fc-Alexa Fluor 488 (Jackson) is added, and incubated at 4° C. for 60 min. The cells are washed twice with PBS (2% FBS). The cells are suspended in 200 μl PBS and analyzed by flow cytometry.

[8] = biological target: T4, Recombinant cynomolgus monkey LAG3-Fc fusion protein (cynomolgus monkey); assay: SPR, cynomolgus monkey LAG3-Fc immobilized on the chip, antibody in flow, 1:1 Langmuir fit
T4 construct: Bought; also called cynomolgus monkey LAG3-Fc protein
Method: as §3, with “for the cynomolgus monkey LAG3 protein.” for “for the LAG3 protein.”

[9] = biological target: T1, full-length human LAG3 on the cell …; assay: flow cytometry on Jurkat cells expressing full-length human LAG3 [panel 6B]
Method: as §2

Tag1-LAG3 protein = biological target: T5, Tag1-LAG3 protein (UniProt P18627 23-450); assay: HTRF blocking assay (Cisbio kit): Tag1-LAG3 with Tag2-FGL1 and antibody
T5 construct: also called LAG3 (Cisbio kit)
Method: The mixture is reacted at room temperature for 15 minutes, and then 10 μL of pre-mixed anti-Tag1-Tb3+ and anti-Tag2-XL665 are added thereto.

[10] = biological target: T2, LAG3-Fc recombinant protein; assay: ELISA blocking assay: antibody mixed with LSECtin, added to coated LAG3-Fc, bound LSECtin detected with anti-His-HRP
Method: The plate is washed 3 times with PBS containing 0.05% Tween 20 (PBST). […] The plate is washed 6 times with PBST, and TMB is added thereto for color development. The reaction is stopped with 2M H₂SO₄. The plate is read at 450 nm with a microplate reader.

binding result [1]: binds
B1: anti-LAG3 murine antibody 6H11B10 (antibody, V domains shown)
VH: EVQVVESGGGLVKPGGSLKLSCAASGFTFSDYYMFWVRQTPEERLEWVATINDGGDYTNYPDSVKGRFTISRDNDKNKLYLQMNSLKSEDTAMYYCARESGIYYDYASFGYWGQGTLVTVSS
VL: DIVMTQAAFSNPVTLGTSASISCRSSKSLLYSNGITYLYWYLQKPGQSPQLLIYQMSNLASGVPDRFSSSGSGTDFTLRISRVEAEDVGVYYCAQNLELPWTFGGGTKLEIKRNL
notes: also called m6H11B10; monoclonal hybridoma cell line 6H11B10

binding result [2]: binds
B2: anti-LAG3 chimeric antibody c6H11B10 (antibody, human IgG4 S228P, V domains shown)
VH: B1 VH
VL: DIVMTQAAFSNPVTLGTSASISCRSSKSLLYSNGITYLYWYLQKPGQSPQLLIYQMSNLASGVPDRFSSSGSGTDFTLRISRVEAEDVGVYYCAQNLELPWTFGGGTKLEIKR
notes: Expressed in CHO-S cells; also called chimeric antibody protein c6H11B10

EC50 (read off the curve) [3]: ~0.3 µg/mL
EC50 (read off the curve) [4]: ~0.3 µg/mL
binding result [5]: binds
B3: anti-LAG3 humanized antibody h6H11B10 (antibody, human IgG4 S228P)
heavy: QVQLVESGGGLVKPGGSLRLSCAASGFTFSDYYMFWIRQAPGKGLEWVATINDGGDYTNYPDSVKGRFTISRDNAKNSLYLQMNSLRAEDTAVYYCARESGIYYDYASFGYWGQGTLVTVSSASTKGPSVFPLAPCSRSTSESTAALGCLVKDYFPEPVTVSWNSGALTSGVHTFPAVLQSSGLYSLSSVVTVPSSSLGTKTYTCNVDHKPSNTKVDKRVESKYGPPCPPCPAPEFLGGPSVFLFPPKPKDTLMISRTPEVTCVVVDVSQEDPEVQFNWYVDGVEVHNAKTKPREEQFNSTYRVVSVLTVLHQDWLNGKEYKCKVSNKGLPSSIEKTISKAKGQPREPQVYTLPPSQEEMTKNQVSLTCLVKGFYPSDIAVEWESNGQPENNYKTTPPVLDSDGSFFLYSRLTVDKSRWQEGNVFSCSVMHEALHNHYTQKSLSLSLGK
light: DIVMTQSPLSLSVTPGEPASISCRSSKSLLYSNGITYLYWYLQKPGQSPQLLIYQMSNLASGVPDRFSGSGSGTDFTLKISRVEAEDVGVYYCAQNLELPWTFGGGTKLEIKRNLAAPSVFIFPPSDEQLKSGTASVVCLLNNFYPREAKVQWKVDNALQSGNSQESVTEQDSKDSTYSLSSTLTLSKADYEKHKVYACEVTHQGLSSPVTKSFNRGEC
notes: Expressed in CHO-S cells

Kd [6]: 0.313 nM
koff [6]: 1.37e-05 s⁻¹
kon [6]: 43500 M⁻¹ s⁻¹
EC50 (read off the curve) [3]: ~0.4 µg/mL
IC50 (read off the curve) [7]: ~0.5 µg/mL
Kd [8]: 1.42 nM
koff [8]: 3.09e-05 s⁻¹
kon [8]: 21700 M⁻¹ s⁻¹
EC50 (read off the curve) [4]: ~0.2 µg/mL
EC50 (read off the curve) [9]: ~0.01 µg/mL
IC50 (read off the curve) (Tag1-LAG3 protein): ~2 µg/mL
IC50 (read off the curve) [10]: ~1 µg/mL
B4: anti-LAG3 humanized antibody h6H11B10#40 (antibody, human IgG4 S228P)
heavy: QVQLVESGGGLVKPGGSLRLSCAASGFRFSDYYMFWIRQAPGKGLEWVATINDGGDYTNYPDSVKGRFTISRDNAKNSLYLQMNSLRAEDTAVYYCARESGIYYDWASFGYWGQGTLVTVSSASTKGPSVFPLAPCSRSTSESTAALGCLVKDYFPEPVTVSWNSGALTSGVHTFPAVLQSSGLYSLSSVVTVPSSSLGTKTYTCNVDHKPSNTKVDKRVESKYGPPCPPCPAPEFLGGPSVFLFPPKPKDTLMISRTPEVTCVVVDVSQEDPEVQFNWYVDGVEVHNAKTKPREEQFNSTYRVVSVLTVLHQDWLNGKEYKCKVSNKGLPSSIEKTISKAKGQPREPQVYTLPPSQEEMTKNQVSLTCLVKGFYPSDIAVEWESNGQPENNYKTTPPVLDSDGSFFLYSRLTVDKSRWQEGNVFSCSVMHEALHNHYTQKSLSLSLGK
light: B3 light with L30K
notes: Expressed in CHO-S cells
